{"source": "patent US10967064B2", "about": "“Preparation method for a DNA origami based carrier system” (YEDITEPE UNIVERSITESI, priority 2016, dated 2021)", "molecules": {"B1": {"name": "DNA tiles: tile shaped DNA origami structure prepared by hybridizing nine complementary oligonucleotides (SEQ ID NOS: 1-9) (nucleic acid)", "DNA 1": "AGGCACCATCGTAGGAAAATCTGCGTCAGCTCTCCGTACACCAGTGCTTCCATGCGAAGTAAAACGTTCCGATCACCAACGGAGTAAAACGATCTAACTGATAACTAGCACCTCTGCTCACGTGAGGAGTAAAACTTGCC", "DNA 2": "ATACCGGAGGCTTCCTGTACGGAGAGCTGACGCAGACCTACGATGGACACGCCG", "DNA 3": "ATGCAACCTGCCTGGCAAGACTCCTCACGTGAGCAGAGGACTACTCATCCGTTA", "DNA 4": "TTTCCGACTGAGCCCTGCTAGTTATCAGTTAGATCGACTCCGTTGGACGAACAG", "DNA 5": "ATAGCGCCTGATCGGAACGACTTCGCATGGAAGCACTGGACCGTTCTACCGATT", "DNA 6": "CTCGCAATCGGTAGAACGGTGGAAGCCTCCGGTATGCATG", "DNA 7": "AAAAAAAAAACGGCGTGTGGTTGCATAAAAAAAAAA", "DNA 8": "CGCTATAACGGATGAGTAGTGGGCTCAGTCGGAAAGAGCA", "DNA 9": "AAAAAAAAAACTGTTCGTGGCGCTATAAAAAAAAAA", "modifications": "Oligonucleotide 1; Oligonucleotide 2; Oligonucleotide 3; Oligonucleotide 4; Oligonucleotide 5; Oligonucleotide 6; Oligonucleotide 7; Oligonucleotide 8; Oligonucleotide 9"}}, "key": {"[1]": {"assay": "Dynamic light scattering analysis of hydrodynamic size", "type": "physicochemical", "conditions": "DLS, dispersed in water", "procedure": "In step 1), 2 μL of each complementary oligonucleotide from a 100 μM stock is added into the hybridization buffer TAE/Mg^2+ to have a final volume of 200 μL. The newly prepared DNA origami carrier is characterized using AFM, agarose gel electrophoresis and dynamic light scattering analysis.\nFor DLS measurements, DNA tiles are dispersed in water. In water, DNA tiles are solvated by water molecules. This hydration layer causes grater diameter than theoretical size of the structure. Hydrodynamic size of DNA tiles was determined as approximately 50 nm, which is in good agreement with AFM results."}, "MDA-MB-231 cell line": {"test_system": "MDA-MB-231 cell line", "assay": "Cytotoxicity of the DNA origami carrier (cell viability)", "type": "cell-based", "conditions": "MDA-MB-231, concentration range 50-400 nM", "procedure": "The cytotoxicity assessments of the DNA origami structure were carried out on MDA-MB-231 cell line at a concentration range of 50-400 nM. According to the cell viability results of the experiment, the DNA-tiles are non-toxic to the cells."}, "[2]": {"assay": "Atomic force microscopy (AFM) size of DNA tile on mica", "type": "physicochemical", "conditions": "dried on mica, non-contact mode; theoretical value 40 nm", "text": "The DNA tile samples taken from the hybridization media were dropped on mica surface for deposition and subsequently washed with deionized water. When the dropped DNA samples on mica were dried, images acquired at non-contact mode. Considering the distance between the base pairs in the DNA as 0.34 nm and the number of the base pairs in the DNA tile structure from one end to another, […], the theoretical length of an assembled DNA tile can be estimated as 40 nm. A representative AFM image obtained from the DNA tile containing dried droplet area is shown on FIG. 2. […] The marked structure is measured as 64 nm, which is larger than the theoretical value of 40 nm. […] Considering the fact that the formation of DNA based structures is not always 100 percent efficient, this deviation can be acceptable."}}}
{"molecule": "B1", "values": [{"measurement": "Hydrodynamic size", "setting": "[1]", "result": "approximately 50 nm"}, {"measurement": "Cytotoxicity (cell viability)", "setting": "MDA-MB-231 cell line", "result": "non-toxic"}, {"measurement": "Size of marked structure in AFM image", "setting": "[2]", "result": 64, "unit": "nm"}]}
